In patent US20250090680A1:

How the values were obtained:
[1] = biological target: recombinant hGPC3-His (human) (UniProt P51654); assay: Biacore SPR, antibody captured, hGPC3-His analyte, 1:1 model
[2] = biological target: recombinant human GPC3 protein (R&D Systems) (human) (UniProt P51654); assay: binding ELISA on plate-coated recombinant hGPC3, detection with goat anti-human Fc secondary antibody and TMB
[3] = biological target: recombinant human GPC3 protein (R&D Systems) (human) (UniProt P51654); assay: ELISA, plate-coated recombinant hGPC3, IgG detected with anti-human Fc
[4] = biological target: recombinant human GPC3 protein (R&D Systems) (human) (UniProt P51654); assay: Octet (BLI) off-rate ranking of scFv
[5] = biological target: recombinant hGPC3-His (human) (UniProt P51654); assay: Biacore SPR, antibody captured, hGPC3-His analyte, 1:1 model; reference ARD-103 IgG

UniProt P51654, sequence (P51654 25-559): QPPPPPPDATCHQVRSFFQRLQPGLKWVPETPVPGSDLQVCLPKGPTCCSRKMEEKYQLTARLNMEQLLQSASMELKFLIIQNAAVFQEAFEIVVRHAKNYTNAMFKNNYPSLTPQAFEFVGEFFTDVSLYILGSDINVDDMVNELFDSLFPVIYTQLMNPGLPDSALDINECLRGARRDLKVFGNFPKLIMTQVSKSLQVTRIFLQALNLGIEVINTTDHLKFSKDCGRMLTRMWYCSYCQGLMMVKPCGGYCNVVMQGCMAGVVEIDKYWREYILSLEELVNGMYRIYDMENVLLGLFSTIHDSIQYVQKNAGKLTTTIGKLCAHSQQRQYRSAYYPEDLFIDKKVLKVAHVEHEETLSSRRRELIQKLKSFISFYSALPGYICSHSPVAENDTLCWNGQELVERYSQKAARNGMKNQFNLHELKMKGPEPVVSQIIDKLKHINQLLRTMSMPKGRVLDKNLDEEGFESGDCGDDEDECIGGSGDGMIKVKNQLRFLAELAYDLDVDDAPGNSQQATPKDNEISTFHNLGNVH

Kd [1] [nM] | koff [1] [s⁻¹] | kon [1] [M⁻¹ s⁻¹] | EC50 [2] [nM] | EC50 [3] [nM] | koff [4] [s⁻¹] | fold of ka against ARD-103 [1] [fold] | fold change of ka against ARD-103 [5] [fold] | Binder
3.85 | 0.000185 | 48100 | 0.11 | – | – | – | – | ARD-103 antibody (IgG) (antibody, V domains shown) VH: QVQLVESGAEVKKPGASVKVSCKASGYTFTDYEMHWVRQAPGQGLEWMGALDPKTGDTAYSQKFKGRVTLTADKSTSTAYMELSSLTSEDTAVYYCTRFYSYTYWGQGTLVTVSS VL: DVVMTQSPLSLPVTPGEPASISCRSSQSLVHSNGNTYLHWYLQKPGQSPQLLIYKVSNRFSGVPDRFSGSGSGTDFTLKISRVEAEDVGVYYCSQNTHVPPTFGQGTKLEIKR
2.38 | 0.000196 | 82300 | – | – | – | – | – | P3-A1 IgG variant of ARD-103 (antibody, V domains shown) VH: QVQLVESGAEVKKPGASVKVSCKASGYTFTDYEMHWVRQAPGQGLEWMGALDPSTGDTAYSQKFKGRVTLTADKSTSTAYMELSSLTSEDTAVYYCTRFYSYTYWGQGTLVTVSS VL: DVVMTQSPLSLPVTPGEPASISCRSSQSLVHWNGNTYLHWYLQKPGQSPQLLIYKVSNRFSGVPDRFSGSGSGTDFTLKISRVEAEDVGVYYCAQNTHVPPTFGQGTKLEIKR
1.56 | 0.000172 | 110000 | – | – | – | – | – | P1-A1 IgG variant of ARD-103 (antibody, V domains shown) VH: QVQLVESGAEVKKPGASVKVSCKASGYTFTDYEMHWVRQAPGQGLEWMGALDPKTGDTAYSQKFQGRVTLTADKSTSTAYMELSSLTSEDTAVYYCTRFYSYTYWGQGTLVTVSS VL: DVVMTQSPLSLPVTPGEPASISCRSSQSLVRSNGNTYLHWYLQKPGQSPQLLIYKVSNRFSGVPDRFSGSGSGTDFTLKISRVEAEDVGVYYCVQNTHVPPTFGQGTKLEIKR
4.15 | 0.000326 | 78500 | 0.095 | 0.1 | – | – | – | P1-G5 IgG variant of ARD-103 (antibody, V domains shown) VH: QVQLVESGAEVKKPGASVKVSCKASGYTFTDYEMHWVRQAPGQGLEWMGAIDPKTGDTAYSQKFKGRVTLTADKSTSTAYMELSSLTSEDTAVYYCTRFYSYTYWGQGTLVTVSS VL: DVVMTQSPLSLPVTPGEPASISCRSSQSLVHSNGNTYLQWYLQKPGQSPQLLIYKVSNRFSGVPDRFSGSGSGTDFTLKISRVEAEDVGVYYCSQVTHVPPTFGQGTKLEIKR
– | – | – | – | – | 0.0003 | – | – | P1-A1 scFv clone (scFv, part only; not given: linker, domain order, tags, V domains shown, not shown: another chain or arm of the molecule; large carriers; small tags and cut ends) VH: QVQLVESGAEVKKPGASVKVSCKASGYTFTDYEMHWVRQAPGQGLEWMGALDPKTGDTAYSQKFQGRVTLTADKSTSTAYMELSSLTSEDTAVYYCTRFYSYTYWGQGTLVTVSS VL: DVVMTQSPLSLPVTPGEPASISCRSSQSLVRSNGNTYLHWYLQKPGQSPQLLIYKVSNRFSGVPDRFSGSGSGTDFTLKISRVEAEDVGVYYCVQNTHVPPTFGQGTKLEIK
3.95 | 0.000299 | 75600 | – | – | – | – | – | P1-E6 IgG variant of ARD-103 (antibody, V domains shown) VH: QVQLVESGAEVKKPGASVKVSCKASGYTFTDYEMHWVRQAPGQGLEWMGALDPKTGDTALSQKFKGRVTLTADKSTSTAYMELSSLTSEDTAVYYCTRFYSYTYWGQGTLVTVSS VL: DVVMTQSPLSLPVTPGEPASISCRSSSSLVHSNGNTYLHWYLQKPGQSPQLLIYKVSNRFSGVPDRFSGSGSGTDFTLKISRVEAEDVGVYYCLQNGIVPPTFGQGTKLEIKR
– | – | – | – | – | 0.000193 | – | – | P1-D6 scFv clone (scFv, part only; not given: linker, domain order, tags, V domains shown, not shown: another chain or arm of the molecule; large carriers; small tags and cut ends) VH: QVQLVQSGAEVKNPGASVKVSCKASGYTFTDYEMHWVRQAPGQGLEWMGALDPFTGDTAYSQKFKGRVTLTADKSTSTAYMELSSLTSEDTAVYYCTRFYSYTYWGQGTLVTVSS VL: DVVMTQSPLSLPVTPGEPASISCRSSQSLVHSNGNTYLHWYLQKPGQSPQLLIYKVSNRFSGVPDRFSGSGSGTDFTLKISRVEAEDVGVYYCLQNGYVPPTFGQGTKLEIK
– | – | – | – | – | 0.00027 | – | – | P1-B9 scFv clone (scFv, part only; not given: linker, domain order, tags, V domains shown, not shown: another chain or arm of the molecule; large carriers; small tags and cut ends) VH: QVQLVESGAEVKKPGASVKVSCKASGYTFTDYEMHWVRQAPGQGLEWMGALDPKTGDTALSQKFKGRVTLTADKSTSTAYMELSSLTSEDTAVYYCTRFYSYTYWGQGTLVTVSS VL: DVVMTQSPLSLPVTPGEPASISCRSSQSLVHSNGNTYLQWYLQKPGQSPQLLIYKVSNRFSGVPDRFSGSGSGTDFTLKISRVEAEDVGVYYCGQVTHVPPTFGQGTKLEIK
3.33 | 0.00026 | 78000 | 0.095 | 0.1 | – | – | – | P1-B9 IgG variant of ARD-103 (antibody, V domains shown) VH: QVQLVESGAEVKKPGASVKVSCKASGYTFTDYEMHWVRQAPGQGLEWMGALDPKTGDTALSQKFKGRVTLTADKSTSTAYMELSSLTSEDTAVYYCTRFYSYTYWGQGTLVTVSS VL: DVVMTQSPLSLPVTPGEPASISCRSSQSLVHSNGNTYLQWYLQKPGQSPQLLIYKVSNRFSGVPDRFSGSGSGTDFTLKISRVEAEDVGVYYCGQVTHVPPTFGQGTKLEIKR
8.46 | 0.000724 | 85600 | 0.1 | 0.1 | – | – | – | P3-F7 IgG variant of ARD-103 (antibody, V domains shown) VH: QVQLVESGAEVKKPGASVKVSCKASGYTFTDYEMHWVRQAPGQGLEWMGALDPKTGDTAYSQKFKGRVTLTADKSTSTAYMELSSLTSEDTAVYYCTRFYSYTYWGQGTLVTVSS VL: DVVMTQSPLSLPVTPGEPASISCRSSQSLVHSNGNTYLQWYLQKPGQSPQLLIYKVSNRFSGVPDRFSGSGSGTDFTLKISRVEAEDVGVYYCVQVTHVPPTFGQGTKLEIKR
– | – | – | – | – | 0.000304 | – | – | P3-A1 scFv clone (scFv, part only; not given: linker, domain order, tags, V domains shown, not shown: another chain or arm of the molecule; large carriers; small tags and cut ends) VH: QVQLVESGAEVKKPGASVKVSCKASGYTFTDYEMHWVRQAPGQGLEWMGALDPSTGDTAYSQKFKGRVTLTADKSTSTAYMELSSLTSEDTAVYYCTRFYSYTYWGQGTLVTVSS VL: DVVMTQSPLSLPVTPGEPASISCRSSQSLVHWNGNTYLHWYLQKPGQSPQLLIYKVSNRFSGVPDRFSGSGSGTDFTLKISRVEAEDVGVYYCAQNTHVPPTFGQGTKLEIK
– | – | – | – | – | 0.000319 | – | – | P3-F7 scFv clone (scFv, part only; not given: linker, domain order, tags, V domains shown, not shown: another chain or arm of the molecule; small tags and cut ends) VH: QVQLVESGAEVKKPGASVKVSCKASGYTFTDYEMHWVRQAPGQGLEWMGALDPKTGDTAYSQKFKGRVTLTADKSTSTAYMELSSLTSEDTAVYYCTRFYSYTYWGQGTLVTVSS VL: DVVMTQSPLSLPVTPGEPASISCRSSQSLVHSNGNTYLQWYLQKPGQSPQLLIYKVSNRFSGVPDRFSGSGSGTDFTLKISRVEAEDVGVYYCVQVTHVPPTFGQGTKLEIK
– | – | – | – | – | 0.000197 | – | – | P1-G5 scFv clone (scFv, part only; not given: linker, domain order, tags, V domains shown, not shown: another chain or arm of the molecule; large carriers; small tags and cut ends) VH: QVQLVESGAEVKKPGASVKVSCKASGYTFTDYEMHWVRQAPGQGLEWMGAIDPKTGDTAYSQKFKGRVTLTADKSTSTAYMELSSLTSEDTAVYYCTRFYSYTYWGQGTLVTVSS VL: DVVMTQSPLSLPVTPGEPASISCRSSQSLVHSNGNTYLQWYLQKPGQSPQLLIYKVSNRFSGVPDRFSGSGSGTDFTLKISRVEAEDVGVYYCSQVTHVPPTFGQGTKLEIK
– | – | – | – | – | 0.000122 | – | – | P6-D11 scFv clone (scFv, part only; not given: linker, domain order, tags, V domains shown, not shown: another chain or arm of the molecule; large carriers; small tags and cut ends) VH: QVQLVQSGAEVKKPGASVKVSCKASGYTFTDYEMHWVRQAPGQGLEWMGALDPKTGDEAYSQKFKGRVTLTADKSTSTAYMELSSLTSEDTAVYYCTRFYSYTYWGQGTLVTVSS VL: DVVMTQSPLSLPVTPGEPASISCRSEQSLVHSNGNTYLHWYLQKPGQSPQLLIYKVSNRFSGVPDRFSGSGSGTDFTLKISRVEAEDVGVYYCVQNGLFPPTFGQGTKLEIK
3.02 | 0.000324 | 107000 | 0.094 | 0.1 | – | 2 | 2 | P6-D11 IgG variant of ARD-103 (antibody, V domains shown) VH: QVQLVQSGAEVKKPGASVKVSCKASGYTFTDYEMHWVRQAPGQGLEWMGALDPKTGDEAYSQKFKGRVTLTADKSTSTAYMELSSLTSEDTAVYYCTRFYSYTYWGQGTLVTVSS VL: DVVMTQSPLSLPVTPGEPASISCRSEQSLVHSNGNTYLHWYLQKPGQSPQLLIYKVSNRFSGVPDRFSGSGSGTDFTLKISRVEAEDVGVYYCVQNGLFPPTFGQGTKLEIKR
– | – | – | – | – | 0.00048 | – | – | P1-E6 scFv clone (scFv, part only; not given: linker, domain order, tags, V domains shown, not shown: another chain or arm of the molecule; large carriers; small tags and cut ends) VH: QVQLVESGAEVKKPGASVKVSCKASGYTFTDYEMHWVRQAPGQGLEWMGALDPKTGDTALSQKFKGRVTLTADKSTSTAYMELSSLTSEDTAVYYCTRFYSYTYWGQGTLVTVSS VL: DVVMTQSPLSLPVTPGEPASISCRSSSSLVHSNGNTYLHWYLQKPGQSPQLLIYKVSNRFSGVPDRFSGSGSGTDFTLKISRVEAEDVGVYYCLQNGIVPPTFGQGTKLEIK
3.62 | 0.00033 | 91300 | 0.11 | 0.1 | – | – | – | P1-D6 IgG variant of ARD-103 (antibody, V domains shown) VH: QVQLVQSGAEVKNPGASVKVSCKASGYTFTDYEMHWVRQAPGQGLEWMGALDPFTGDTAYSQKFKGRVTLTADKSTSTAYMELSSLTSEDTAVYYCTRFYSYTYWGQGTLVTVSS VL: DVVMTQSPLSLPVTPGEPASISCRSSQSLVHSNGNTYLHWYLQKPGQSPQLLIYKVSNRFSGVPDRFSGSGSGTDFTLKISRVEAEDVGVYYCLQNGYVPPTFGQGTKLEIKR
